For the test, the target named is T1, antisense peptide IPPKYW.
T1 chain: IPPKYW
In words: tryptophan fluorescence titration.

B1: Met-enkephalin (peptide)
chain: YGGFM
In general, Kd refers to the concentration at which binding is half-saturated. A high value points to a looser complex. As to B1, binding was put at a Kd of 19 µM.

The record behind these values is PMC6270943 (2014).
